Tests used:
Settings in all cases: remark: other sources report otherwise
A/Beijing/262/95 (H1N1) = target: A/Beijing/262/95 (H1N1)
A/USSR/90/77 (H1N1) = target: A/USSR/90/77 (H1N1)
A/AA/Marton/43 (H1N1) = target: A/AA/Marton/43 (H1N1)
[1] = target: A/Solomon Islands/3/06 (H1N1)

B1: HB80.3 ([change], [change], [change], [change], Delta54-95) (designed binder)
chain: MASTRGSGRPWGFSENLAFELALSFTNKDTPDRWAKVAQYVSGRTPEEVKKHYE
In the case of B1, the Kd (A/Beijing/262/95 (H1N1)) is reported as 10 nM, the Kd (A/USSR/90/77 (H1N1)) is reported as 10 nM and the Kd (A/AA/Marton/43 (H1N1)) is reported as 10 nM. The Kd [1] was 100 nM.

Reference: US20140206628A1
